Key:
[1] = molecular target: CelA203, lichenase (β-1,3-1,4-glucanase) from Bacillus subtilis B110 (Bacillus subtilis B110); test: SDS-PAGE of unboiled sample, mass from a mobility (Rf) standard curve; purified CelA203, unboiled, 10% SDS-PAGE; tetramer band and weak monomer band; tetramer to monomers
[2] = molecular target: CelA203, lichenase (β-1,3-1,4-glucanase) from Bacillus subtilis B110 (Bacillus subtilis B110); test: SEC; FPLC, Enrich SEC 650 10 × 300 column, 20 mM Tris-HCl pH 7.0, 0.5 ml/min; calibrated with HMW native protein markers (66-669); polymer and monomer peaks

- stoichiometry N [1]: 4.07
- stoichiometry N [2]: 4
Substance: CelA203, lichenase (β-1,3-1,4-glucanase) from Bacillus subtilis B110 (enzyme)

Source: PMC9628817
